T1: MBP-Kap114 (S. cerevisiae, UniProt P53067 1-1004)
T1 construct: TEV site between MBP and Kap114; pMalE modified with a His6-tag immediately N-terminal of MBP and a TEV site after MBP; held on amylose resin in the pull-downs; also called immobilized MBP-Kap114; iK; source: E. coli BL21 Gold, purified (amylose beads, HiTrap Q, SEC); not shown: MBP, N-terminal, kept
T1 sequence: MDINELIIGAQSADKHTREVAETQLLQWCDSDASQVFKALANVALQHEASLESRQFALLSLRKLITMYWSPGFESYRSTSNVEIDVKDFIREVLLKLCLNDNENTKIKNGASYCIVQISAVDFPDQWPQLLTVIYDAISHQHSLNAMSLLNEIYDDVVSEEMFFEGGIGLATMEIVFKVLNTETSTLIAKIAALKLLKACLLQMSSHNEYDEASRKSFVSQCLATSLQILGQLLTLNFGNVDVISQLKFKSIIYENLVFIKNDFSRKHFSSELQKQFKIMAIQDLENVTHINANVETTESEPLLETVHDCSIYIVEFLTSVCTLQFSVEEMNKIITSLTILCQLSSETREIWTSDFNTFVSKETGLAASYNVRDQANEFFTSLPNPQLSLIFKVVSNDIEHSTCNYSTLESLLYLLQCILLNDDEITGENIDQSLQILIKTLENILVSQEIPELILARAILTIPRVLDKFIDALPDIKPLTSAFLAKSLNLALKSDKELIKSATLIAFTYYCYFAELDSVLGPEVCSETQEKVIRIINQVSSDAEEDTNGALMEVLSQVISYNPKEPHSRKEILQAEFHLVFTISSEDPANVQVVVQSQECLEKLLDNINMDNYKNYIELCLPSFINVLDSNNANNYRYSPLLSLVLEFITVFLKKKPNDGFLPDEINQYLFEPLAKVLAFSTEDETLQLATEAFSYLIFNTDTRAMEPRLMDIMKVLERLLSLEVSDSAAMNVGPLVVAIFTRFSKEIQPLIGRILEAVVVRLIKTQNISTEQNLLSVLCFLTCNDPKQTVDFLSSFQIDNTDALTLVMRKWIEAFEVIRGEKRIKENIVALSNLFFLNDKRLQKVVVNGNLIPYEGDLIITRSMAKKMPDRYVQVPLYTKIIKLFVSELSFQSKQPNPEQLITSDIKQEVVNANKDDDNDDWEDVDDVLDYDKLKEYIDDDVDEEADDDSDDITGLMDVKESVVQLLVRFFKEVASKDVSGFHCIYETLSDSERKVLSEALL

T2: Nap1 core (residues 75–365) (S. cerevisiae, UniProt P25293 75-365)
T2 chain: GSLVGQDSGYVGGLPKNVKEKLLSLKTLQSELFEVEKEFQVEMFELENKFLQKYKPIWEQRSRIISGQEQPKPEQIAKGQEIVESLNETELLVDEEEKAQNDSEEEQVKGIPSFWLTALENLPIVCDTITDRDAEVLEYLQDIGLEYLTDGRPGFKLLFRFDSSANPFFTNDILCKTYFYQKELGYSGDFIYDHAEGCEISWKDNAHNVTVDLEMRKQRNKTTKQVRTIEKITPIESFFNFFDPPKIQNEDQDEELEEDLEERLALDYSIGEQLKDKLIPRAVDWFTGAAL

B1: Nap1 α5/6mut (E194A/D201A/D205A) (natural protein, S. cerevisiae, UniProt P25293 1-417, looked up)
chain: MSDPIRTKPKSSMQIDNAPTPHNTPASVLNPSYLKNGNPVRAQAQEQDDKIGTINEEDILANQPLLLQSIQDRLGSLVGQDSGYVGGLPKNVKEKLLSLKTLQSELFEVEKEFQVEMFELENKFLQKYKPIWEQRSRIISGQEQPKPEQIAKGQEIVESLNETELLVDEEEKAQNDSEEEQVKGIPSFWLTALANLPIVAATITARDAEVLEYLQDIGLEYLTDGRPGFKLLFRFDSSANPFFTNDILAKTYFYQKELGYSGDFIYDHAEGAEISWKDNAHNVTVDLEMRKQRNKTTKQVRTIEKITPIESFFNFFDPPKIQNEDQDEELEEDLEERLALDYSIGEQLKDKLIPRAVDWFTGAALEFEFEEDEEEADEDEDEEEDDDHGLEDDDGESAEEQDDFAGRPEQAPECKQS
notes: also called mutant α5/6mut; source: E. coli BL21 gold, purified (Ni-NTA, TEV cleavage, HiTrap Q, Superdex S200)
B2: Nap1 core (residues 75–365), His tag removed (domain or fragment, S. cerevisiae, UniProt P25293 75-365, looked up)
chain: T2 chain
notes: Nap1 (nucleosome assembly protein 1), S. cerevisiae, core, residues 75–365; also called Nap1_(2) core; source: E. coli, purified (nickel-NTA, ion exchange, thrombin cleavage, SEC)
B3: Nap1 core (residues 75–365) (domain or fragment, S. cerevisiae, UniProt P25293 75-365, looked up)
chain: T2 chain
notes: Nap1 (nucleosome assembly protein 1), S. cerevisiae, core, residues 75–365; pET15b vector, gift from Karolin Luger; The His tag is said to be removed only for pull-down assays; also called His-Nap1 core; Nap1 core dimer; source: E. coli, purified (nickel-NTA, ion exchange, SEC)
B4: Kap114 (receptor, S. cerevisiae)
chain: T1 sequence
notes: also called Sc Kap114; source: E. coli, expressed as GST-Kap114, purified (Glutathione Sepharose 4B, on-column TEV cleavage, SEC)

How the values were obtained:
[1] = target: TBP (Saccharomyces cerevisiae) (UniProt P13393); settings: cited from earlier work
Kap114 [2] = target: B4; assay: SEC-MALS; equimolar mixture of Kap114, Nap1_(2), H2A-H2B and Ran^GTP; Assay buffer without glycerol; Nap1 counted as dimer
[3] = target: Nap1 FL (C200A, C249A, C272A) (S. cerevisiae) (UniProt P25293); assay: as above
Kap114 [4] = target: B4; assay: SEC-MALS; 1:1:1 mixture of Kap114, Nap1_(2) and H2A-H2B (80 µM each), no Ran^GTP; Assay buffer without glycerol; Nap1 counted as dimer
[5] = target: Nap1 FL (C200A, C249A, C272A) (S. cerevisiae) (UniProt P25293); assay: as above
MBP-Kap114 = target: T1, MBP-Kap114; assay: pull-down; MBP-Kap114 (WT or mutant; or MBP alone) 1 µM immobilized on amylose resin, equimolar Nap1_(2) ± H2A-H2B (1 or 2 µM) ± Ran^GTP; Assay Buffer (20 mM HEPES pH 7.4, 150 mM NaCl, 2 mM MgCl2, 10% glycerol, 2 mM DTT), 30 min at 4°C; Coomassie-stained SDS-PAGE; settings: both partners purified
Kap114 [6] = target: B4; assay: AUC; sedimentation velocity c(s) of Kap114, Nap1_(2) core and Ran^GTP alone and in mixtures at indicated molar ratios; 20 mM Tris-HCl pH 7.5, 150 mM NaCl, 2 mM MgCl2, 2 mM TCEP; settings: both partners purified
[7] = target: the molecule itself; assay: cryo-EM structure; Nap1 core dimer:H2A-H2B 1:2, then 1 molar ratio Kap114, 0.05% glutaraldehyde 1 min, SEC; no Ran^GTP; gave Nap1_(2), Kap114•H2A-H2B and two ternary assemblies
[8] = target: T2, Nap1 core (residues 75–365); assay: AUC
[9] = target: B3; assay: AUC; sedimentation velocity; Kap114 titrated into the Nap1 core dimer; isotherm with one-site model; 20 mM Tris-HCl pH 7.5, 150 mM NaCl, 2 mM MgCl2, 2 mM TCEP; settings: both partners purified

Chain of TBP (Saccharomyces cerevisiae) (P13393 2-240): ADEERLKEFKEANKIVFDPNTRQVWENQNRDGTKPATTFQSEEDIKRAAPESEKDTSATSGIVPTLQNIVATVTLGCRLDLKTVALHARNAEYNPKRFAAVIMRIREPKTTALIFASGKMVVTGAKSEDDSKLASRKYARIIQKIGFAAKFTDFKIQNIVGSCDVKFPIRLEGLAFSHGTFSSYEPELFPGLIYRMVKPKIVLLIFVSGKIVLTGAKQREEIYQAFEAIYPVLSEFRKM

## Kap114 (from UniProt P53067)
[1]
  Kd: < 1 nM

## Sc H2A-H2B (from UniProt P04911 2-124; P02293 5-131) (complex)
Kap114 [2]
  stoichiometry N: 1
[3]
  stoichiometry N: 1
Kap114 [4]
  stoichiometry N: 1
[5]
  stoichiometry N: 1

## B1
MBP-Kap114
  binding result: binds

## B2
MBP-Kap114
  binding result: binds

## B3
Kap114 [6]
  binding result: binds
[7]
  binding result: binds

## B4
[8]
  Kd: 1040 nM
[9]
  stoichiometry N: 1
